Assay results as given in patent publication US20240366775A1, “HUMAN TRANSFERRIN RECEPTOR BINDING ANTIBODY-PEPTIDE CONJUGATE” (PEPTIDREAM INC., priority 2021, published 2024).

Target: human transferrin receptor (hTfR) (human), P02786
Test: SPR of naked peptide on hTfR; B = KD between 1 nM and 100 nM

Sequence of human transferrin receptor (hTfR) (human), P02786 (P02786 89-760 limits assumed): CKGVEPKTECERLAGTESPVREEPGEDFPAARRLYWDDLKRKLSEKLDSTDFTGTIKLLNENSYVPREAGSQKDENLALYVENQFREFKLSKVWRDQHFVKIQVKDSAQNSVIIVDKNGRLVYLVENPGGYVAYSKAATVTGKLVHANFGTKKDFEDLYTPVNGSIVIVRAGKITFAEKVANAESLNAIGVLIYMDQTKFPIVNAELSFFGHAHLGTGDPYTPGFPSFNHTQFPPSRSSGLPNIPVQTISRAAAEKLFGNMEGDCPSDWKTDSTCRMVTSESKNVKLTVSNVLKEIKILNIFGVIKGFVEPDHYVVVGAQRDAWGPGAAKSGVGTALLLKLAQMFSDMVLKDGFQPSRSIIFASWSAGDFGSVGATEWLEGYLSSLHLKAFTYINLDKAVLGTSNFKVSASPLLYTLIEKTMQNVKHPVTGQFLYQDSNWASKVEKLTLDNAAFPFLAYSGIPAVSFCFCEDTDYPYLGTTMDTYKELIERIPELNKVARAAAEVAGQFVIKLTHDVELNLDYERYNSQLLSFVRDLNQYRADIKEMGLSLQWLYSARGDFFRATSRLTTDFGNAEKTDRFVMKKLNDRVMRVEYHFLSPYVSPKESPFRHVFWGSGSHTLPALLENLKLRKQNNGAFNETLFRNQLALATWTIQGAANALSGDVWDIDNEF

Binder: AVFVWNYYIISC (modifications not checked) [naked peptide (1st to 12th amino acids) of SEQ ID NO: 14, peptide 36]
- KD: 1 to 100 nM
